In publication PMC3433589 (Biochemistry, 2012):

Experiments:
[1] = target: T1, human Glutaminase Interacting Protein (GIP) (human, UniProt O14907 1-124); assay: phage display selection
T1 sequence (looked up): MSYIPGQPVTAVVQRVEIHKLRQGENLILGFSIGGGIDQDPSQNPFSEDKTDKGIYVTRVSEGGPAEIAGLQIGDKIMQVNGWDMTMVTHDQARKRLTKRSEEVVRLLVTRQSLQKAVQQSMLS

[2] = target: T1, human Glutaminase Interacting Protein …; assay: NMR titration

| Binder | binding result [1] | binding result [2] |
| --- | --- | --- |
| GSSLDVTDN [phage clone displaying GSSLDVTDN] | binds |  |
| ESSVDLLDG [ESSVDLLDG peptide (synthetic)] |  | binds |
| AISSVDSMG [phage clone displaying AISSVDSMG] | binds |  |
| AYESSVDDN [phage clone displaying AYESSVDDN] | binds |  |
| DSNLDVSVE [phage clone displaying DSNLDVSVE] | binds |  |
| ESSVDMIGD [phage clone displaying ESSVDMIGD] | binds |  |
| GSSVDLVGD [phage clone displaying GSSVDLVGD] | binds |  |
| GSMNLDVQS [phage clone displaying GSMNLDVQS] | binds |  |
| GGNLDVNVG [phage clone displaying GGNLDVNVG] | binds |  |
| GSGTDLDAS [phage clone displaying GSGTDLDAS] | binds |  |
| GTNLDGNGD [phage clone displaying GTNLDGNGD] | binds |  |
| GSSSVDVDG [phage clone displaying GSSSVDVDG] | binds |  |
| GYETSLDSN [phage clone displaying GYETSLDSN] | binds |  |
| GSSLDVTDN [GSSLDVTDN peptide (synthetic)] |  | binds |
| ESSVDLLDG [phage clone displaying ESSVDLLDG] | binds |  |
| ASSSVDDMA [phage clone displaying ASSSVDDMA] | binds |  |
| GSSLDVTSE [phage clone displaying GSSLDVTSE] | binds |  |
| GSGTDLDAS [GSGTDLDAS peptide (synthetic)] |  | binds |
| ASSSVDDMA [ASSSVDDMA peptide (synthetic)] |  | binds |
| VSNLDTTND [phage clone displaying VSNLDTTND] | binds |  |
| DGNLDSYDN [phage clone displaying DGNLDSYDN] | binds |  |
